Results published in US20200247894A1 (Regeneron, published 2020).

T1: Rat IL2Rγ extracellular domain expressed with a C-terminal myc-myc-hexahistidine tag (rat)
T1 construct: whole entry is the tagged construct; also called rIL-2Rg-MMH; rat IL-2Rg-MMH
T1 chain: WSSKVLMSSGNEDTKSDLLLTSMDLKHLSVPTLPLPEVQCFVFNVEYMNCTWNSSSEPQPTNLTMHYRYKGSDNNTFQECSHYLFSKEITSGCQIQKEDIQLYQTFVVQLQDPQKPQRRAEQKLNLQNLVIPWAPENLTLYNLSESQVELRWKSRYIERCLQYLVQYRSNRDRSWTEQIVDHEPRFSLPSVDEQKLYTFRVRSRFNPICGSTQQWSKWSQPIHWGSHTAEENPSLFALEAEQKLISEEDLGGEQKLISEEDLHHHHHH

T2: Macaca fascicularis IL2Rγ extracellular domain expressed with a C-terminal myc-myc-hexahistidine tag (Macaca fascicularis)
T2 construct: whole entry is the tagged construct; also called mfIL-2Rg-MMH
T2 chain: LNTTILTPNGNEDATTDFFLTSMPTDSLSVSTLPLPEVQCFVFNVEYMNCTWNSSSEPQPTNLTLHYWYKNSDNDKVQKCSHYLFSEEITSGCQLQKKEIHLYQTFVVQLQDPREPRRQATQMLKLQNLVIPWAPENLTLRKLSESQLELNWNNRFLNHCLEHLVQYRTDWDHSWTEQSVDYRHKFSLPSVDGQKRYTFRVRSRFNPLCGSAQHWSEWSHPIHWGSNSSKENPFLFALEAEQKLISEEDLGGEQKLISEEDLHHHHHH

T3: Mouse IL2Rγ extracellular domain expressed with a C-terminal myc-myc-hexahistidine tag (mouse)
T3 construct: whole entry is the tagged construct; also called mIL-2Rg-MMH
T3 chain: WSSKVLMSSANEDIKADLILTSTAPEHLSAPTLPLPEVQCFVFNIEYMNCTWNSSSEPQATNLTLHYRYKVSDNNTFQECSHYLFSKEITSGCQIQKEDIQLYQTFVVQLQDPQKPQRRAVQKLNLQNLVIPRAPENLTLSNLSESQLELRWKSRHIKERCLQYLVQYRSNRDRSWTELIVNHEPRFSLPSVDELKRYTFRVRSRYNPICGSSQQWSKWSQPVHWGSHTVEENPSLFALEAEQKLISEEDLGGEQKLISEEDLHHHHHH

T4: Human IL2Rγ extracellular domain expressed with a C-terminal mouse IgG2a Fc tag (human)
T4 construct: whole entry is the Fc-fused construct; also called hIL-2Rg-mFc
T4 chain: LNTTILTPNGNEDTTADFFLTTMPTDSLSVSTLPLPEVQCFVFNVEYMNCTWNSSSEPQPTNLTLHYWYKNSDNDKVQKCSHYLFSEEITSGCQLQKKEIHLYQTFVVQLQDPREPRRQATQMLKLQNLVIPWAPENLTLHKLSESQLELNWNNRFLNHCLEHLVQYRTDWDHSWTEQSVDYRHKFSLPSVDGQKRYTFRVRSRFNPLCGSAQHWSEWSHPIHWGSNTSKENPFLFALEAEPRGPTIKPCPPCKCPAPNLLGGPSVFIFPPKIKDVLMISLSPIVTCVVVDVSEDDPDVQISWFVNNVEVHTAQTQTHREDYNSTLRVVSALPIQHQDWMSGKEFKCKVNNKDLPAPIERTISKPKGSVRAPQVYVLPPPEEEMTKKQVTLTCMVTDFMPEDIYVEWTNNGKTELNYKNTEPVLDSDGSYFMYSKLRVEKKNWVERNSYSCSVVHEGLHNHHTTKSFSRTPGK


Experiments:
[1] = biological target: T1, Rat IL2Rγ extracellular domain …; assay: SPR Biacore 4000, anti-hFc-captured mAb, 37 C
Experimental: (§1) Equilibrium dissociation constants (KD values) for IL-2Rγ binding to purified anti-IL2Rγ monoclonal antibodies were determined using a Biacore 4000 instrument equipped with a real-time surface plasmon resonance biosensor. All binding studies were performed in 10 mM HEPES, 150 mM NaCl, 3 mM EDTA, and 0.05% v/v Surfactant Tween-20, pH 7.4 (HBS-ET) running buffer at 25° C. and 37° C. The Biacore sensor surface was first derivatized by amine coupling with a monoclonal mouse anti-human Fc antibody (GE, # BR-1008-39) to capture anti-IL2Rγ monoclonal antibodies.
(§2) The dissociation of monoclonal antibody bound IL2Rγ reagents were monitored for 8-10 minutes in HBS-ET running buffer. Kinetic association (kₐ) and dissociation (kd) rate constants were determined by fitting the real-time sensorgrams to a 1:1 binding model using Scrubber 2.0c curve fitting software. Binding dissociation equilibrium constants (KD) and dissociative half-lives (t_{1/2}) were calculated from the kinetic rate constants as: […]

[2] = biological target: T2, Macaca fascicularis IL2Rγ extracellular …; assay: SPR Biacore 4000, anti-hFc-captured mAb, 37 C
Experimental: as §1, §2

[3] = biological target: T3, Mouse IL2Rγ extracellular domain …; assay: SPR Biacore 4000, anti-hFc-captured mAb, 37 C
Experimental: as §1, §2

[4] = biological target: T1, Rat IL2Rγ extracellular domain …; assay: SPR Biacore 4000, anti-hFc-captured mAb, 25 C
Experimental: as §1, §2

[5] = biological target: T3, Mouse IL2Rγ extracellular domain …; assay: SPR Biacore 4000, anti-hFc-captured mAb, 25 C
Experimental: as §1, §2

[6] = biological target: T4, Human IL2Rγ extracellular domain …; assay: SPR Biacore 4000, anti-hFc-captured mAb, 37 C
Experimental: as §1, §2

[7] = biological target: T4, Human IL2Rγ extracellular domain …; assay: SPR Biacore 4000, anti-hFc-captured mAb, 25 C
Experimental: as §1, §2

Binder | 100 nM Ag Bound [1] [RU] | 100 nM Ag Bound [2] [RU] | Kd [2] [nM] | koff [2] [s⁻¹] | kon [2] [M⁻¹ s⁻¹] | t1/2 [2] [min] | 100 nM Ag Bound [3] [RU] | 100 nM Ag Bound [4] [RU] | binding result [4] | 100 nM Ag Bound [5] [RU] | binding result [5] | also measured
H4H12890P (antibody, human IgG4 S228P, kappa, V domains shown, fully human anti-IL2Rgamma mAb, human IgG4 Fc) VH: EVQLVESGGGLVQPGGSLRLSCAASGFTFNNYAMHWVRQAPGKGLEYVSSISSSGGSTYYEDSVKGRFTISRDNSKNTLYLQMGSLRAEDMAVYYCARSFYGSGTYYDTFDMWGQGTMVTVSS VL: DIQMTQSPSSLSASIGDRVTITCRASQSISRYLNWYQQKPGKAPKLLIYAASSLQSGVPSRFSASGSGTDFTLTISSLQPEDFATYYCQQSYSTPFTFGQGTKLEIKR | 0 | 20 | 14 | 0.00131 | 93600 | 9 | 1 | 0 | no binding (tested: 100 nM) | 1 | no binding (tested: 100 nM) | 
H4H12900P (antibody, human IgG4 S228P, kappa, V domains shown, fully human anti-IL2Rgamma mAb, human IgG4 Fc) VH: QVQLVESGGGLVKPGGSLRLSCEASGFTFNDFYMTWIRQAPGKGLEWIAYISKSGDKMRYADSVKGRFSTSRDNAKNSLSLQMNSLRAEDTAVYYCARFYGDIWGQGTLVTVSS VL: DIQLTQSPSFLSASVGDRVTITCWASQDISSFLVWYQQKPGKAPNLLIYAASALQSGVPSRFSGSGSGTEFTLTISSLQPEDFASYYCEQLNNYPWTFGQGTKVEIKR | 27 | 38 | 3.18 | 0.00154 | 483000 | 8 | 32 | 57 |  | 76 |  | Kd [1]: 8.7 nM; koff [1]: 0.00363 s⁻¹; kon [1]: 417000 M⁻¹ s⁻¹; t1/2 [1]: 3.2 min; Kd [3]: 6.11 nM; koff [3]: 0.00317 s⁻¹; kon [3]: 519000 M⁻¹ s⁻¹; t1/2 [3]: 4 min; Kd [4]: 6.02 nM; koff [4]: 0.000619 s⁻¹; kon [4]: 103000 M⁻¹ s⁻¹; t1/2 [4]: 19 min; Kd [5]: 3.76 nM; koff [5]: 0.000467 s⁻¹; kon [5]: 124000 M⁻¹ s⁻¹; t1/2 [5]: 25 min
H4H12858P (antibody, human IgG4 S228P, kappa, V domains shown, fully human anti-IL2Rgamma mAb, human IgG4 Fc; also called REGN9433) VH: EVQLVESGGDLVQPGGSLRLSCTASGFIFRNYAMNWVRQAPGKGLEWLSGILGSNDNTYYVDSVKGRFTISRDNSRNTLYLQMNSLRAEDSAVYYCAKGDAGGFDYWGQGTLVTVSS VL: DVVMTQSPLSLPVILGQPASISCRSSQSLVSSDGNTYLNWFQQRPGQSPRRLIYKVSNRDSGVPDRFSGSGSGTDFTLKISRVEAEDVGAYYCMQGSYWPPTFGQGTKLEIKR | 0 | 47 | 4.77 | 0.00148 | 309000 | 8 | 0 | 0 | no binding (tested: 100 nM) | 2 | no binding (tested: 100 nM) | 50 nM Ag Bound [6]: 37 RU; Kd [6]: 1.49 nM; koff [6]: 0.00025 s⁻¹; kon [6]: 167000 M⁻¹ s⁻¹; t1/2 [6]: 46 min; 50 nM Ag Bound [7]: 46 RU; Kd [7]: 0.855 nM; koff [7]: 9.94e-05 s⁻¹; kon [7]: 116000 M⁻¹ s⁻¹; t1/2 [7]: 116 min
H4H12859P (antibody, human IgG4 S228P, kappa, V domains shown, fully human anti-IL2Rgamma mAb, human IgG4 Fc) VH: QVQLVQSGAEVKKPGASVRVSCKASGYTFTDYDIHWVRQAPGHGLEWMGWINPNSGGTNYAQKFQGRVTMTRDTSISTVYMDLSRLRSDDTAVYYCARADYSSSYYYYGMDVWGQGTTVTVSS VL: not shown | 1 | 10 | 320 | 0.0201 | 62800 | 0.6 | 0 | 2 | no binding (tested: 100 nM) | 2 | no binding (tested: 100 nM) | 

Further lines, with some results ahead:

100 nM Ag Bound [1] [RU] | 100 nM Ag Bound [2] [RU] | Kd [2] [nM] | koff [2] [s⁻¹] | kon [2] [M⁻¹ s⁻¹] | t1/2 [2] [min] | 100 nM Ag Bound [3] [RU] | 100 nM Ag Bound [4] [RU] | binding result [4] | 100 nM Ag Bound [5] [RU] | binding result [5] | Binder | also measured
1 |  |  |  |  |  | 1 | 2 | no binding (tested: 100 nM) | 1 | no binding (tested: 100 nM) | H4H12927P2 (antibody, human IgG4 S228P, kappa, V domains shown, fully human anti-IL2Rgamma mAb, human IgG4 Fc) VH: EVQLVESGGGVVRPGGSLRLSCATSGFTFDDYGMSWVRQVPGKGLEWVSSVNRNGGTTDYADSVKGRFTISRDNAKRSLFLQMNSLRAEDTALYHCATGELFFDYWGQGTLVTVSS VL: not shown | 
16 | 31 | 6.71 | 0.00216 | 322000 | 5 | 19 | 39 |  | 51 |  | H4H12899P (antibody, human IgG4 S228P, kappa, V domains shown, fully human anti-IL2Rgamma mAb, human IgG4 Fc) VH: QVQLVESGGDLVKPGGSLRLSCATSGFTFSDFYMTWIRQAPGKGLEWISYISNSGSIVKYADSVKGRFTISRDNAKNSLYLQMNSLRAEDTAIYYCARFYGDRWGQGTLVTVSS VL: DIQLTQSPSFLSASVGDRVTITCWASQGISTFLAWYQQKPGKAPKLLIYAASTLQSGVPSRFSGSGSGTDFTLTISSLQPEDFATYHCQQLNNYPWTFGQGTKVEIKR | Kd [1]: 51.6 nM; koff [1]: 0.00753 s⁻¹; kon [1]: 146000 M⁻¹ s⁻¹; t1/2 [1]: 1.5 min; Kd [3]: 55.9 nM; koff [3]: 0.0108 s⁻¹; kon [3]: 193000 M⁻¹ s⁻¹; t1/2 [3]: 1.1 min; Kd [4]: 21.7 nM; koff [4]: 0.00153 s⁻¹; kon [4]: 70400 M⁻¹ s⁻¹; t1/2 [4]: 8 min; Kd [5]: 18.4 nM; koff [5]: 0.00167 s⁻¹; kon [5]: 90600 M⁻¹ s⁻¹; t1/2 [5]: 7 min
2 |  |  |  |  |  | 0 | 2 | no binding (tested: 100 nM) | 0 | no binding (tested: 100 nM) | H4H12926P2 (antibody, human IgG4 S228P, kappa, V domains shown, fully human anti-IL2Rgamma mAb, human IgG4 Fc) VH: QVQLQQSGPGLVKPSQTLSLTCAISGDSVSSNIAAWNWIRLSPSRGLEWLGRTFFRSTWFYDYSLSVKGRITINPDTSKNQFSLHLNSVTPEDAAVYYCARTGRRWSLDYWGQGTLVTVSS VL: not shown | 50 nM Ag Bound [6]: 11 RU; Kd [6]: 16 nM; koff [6]: 0.00326 s⁻¹; kon [6]: 204000 M⁻¹ s⁻¹; t1/2 [6]: 4 min; 50 nM Ag Bound [7]: 46 RU; Kd [7]: 5.21 nM; koff [7]: 0.000962 s⁻¹; kon [7]: 185000 M⁻¹ s⁻¹; t1/2 [7]: 12 min
1 |  |  |  |  |  | 1 | 1 | no binding (tested: 100 nM) | 5 | no binding (tested: 100 nM) | H4H12857P (antibody, human IgG4 S228P, kappa, V domains shown, fully human anti-IL2Rgamma mAb, human IgG4 Fc; also called REGN9432) VH: EVQLVESGGGVVRPGGSLRLSCAASGFTFDDFDMSWVRQGPGKGLEWVSGINWHGSSTGYADSVKGRFTISRDNAKNSLYLQMSSLRAEDTALYHCVRGGTIVGATTPLDYWGQGTLVTVSS VL: DIQMTQSPSSLSASVGDRVTMTCRASRTISSYLSWYQQKSGKVPNLLIFGASSLQSGVPSRFSASGSGTDFTLIISSLQPEDFATYYCQQSYSSPLTFGGGTKVEIKR | 
